Values quoted from earlier work in patent US20180369330A1, “METHODS AND COMPOSITIONS USING INTEGRIN-BASED THERAPEUTICS” (La Jolla Institute for Allergy and Immunology, priority 2016, published 2018).

What was measured:
αVβ3 = target: T1, αVβ3 (Homo sapiens, UniProt P05106+P06756); conditions: patients with glioblastoma
T1 construct: host or cells: patients with glioblastoma (cited trials)

[1] = patients, clinical trials or clinical use

T1 sequence (P06756 31-889 limits assumed): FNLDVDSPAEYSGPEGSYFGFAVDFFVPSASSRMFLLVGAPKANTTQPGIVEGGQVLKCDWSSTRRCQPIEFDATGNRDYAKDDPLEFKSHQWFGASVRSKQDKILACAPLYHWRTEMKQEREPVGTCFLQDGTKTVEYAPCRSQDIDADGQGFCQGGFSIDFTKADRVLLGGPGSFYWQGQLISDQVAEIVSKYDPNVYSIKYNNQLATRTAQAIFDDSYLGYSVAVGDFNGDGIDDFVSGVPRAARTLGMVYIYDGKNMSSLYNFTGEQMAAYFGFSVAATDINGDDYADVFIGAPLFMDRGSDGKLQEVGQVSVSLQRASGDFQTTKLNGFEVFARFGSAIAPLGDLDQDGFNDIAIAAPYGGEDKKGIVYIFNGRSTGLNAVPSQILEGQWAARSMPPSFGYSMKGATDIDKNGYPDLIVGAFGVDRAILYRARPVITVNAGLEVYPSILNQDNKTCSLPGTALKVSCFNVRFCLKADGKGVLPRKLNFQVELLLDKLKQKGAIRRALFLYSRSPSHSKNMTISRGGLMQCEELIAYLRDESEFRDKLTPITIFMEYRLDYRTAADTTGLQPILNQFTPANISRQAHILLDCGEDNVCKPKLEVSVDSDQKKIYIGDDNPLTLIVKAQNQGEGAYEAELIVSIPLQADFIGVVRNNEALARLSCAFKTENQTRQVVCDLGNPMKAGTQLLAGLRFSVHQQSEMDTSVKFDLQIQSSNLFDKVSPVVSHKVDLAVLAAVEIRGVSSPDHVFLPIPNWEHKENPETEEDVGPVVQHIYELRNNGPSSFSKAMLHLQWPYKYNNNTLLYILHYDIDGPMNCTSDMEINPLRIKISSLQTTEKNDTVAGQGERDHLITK
T1 sequence (P06756 891-1048 limits assumed): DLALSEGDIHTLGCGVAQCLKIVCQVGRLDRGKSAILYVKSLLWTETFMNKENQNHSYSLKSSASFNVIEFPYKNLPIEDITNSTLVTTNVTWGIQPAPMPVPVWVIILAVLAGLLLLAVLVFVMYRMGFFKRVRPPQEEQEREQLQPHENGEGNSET
T1 sequence (P05106 27-788): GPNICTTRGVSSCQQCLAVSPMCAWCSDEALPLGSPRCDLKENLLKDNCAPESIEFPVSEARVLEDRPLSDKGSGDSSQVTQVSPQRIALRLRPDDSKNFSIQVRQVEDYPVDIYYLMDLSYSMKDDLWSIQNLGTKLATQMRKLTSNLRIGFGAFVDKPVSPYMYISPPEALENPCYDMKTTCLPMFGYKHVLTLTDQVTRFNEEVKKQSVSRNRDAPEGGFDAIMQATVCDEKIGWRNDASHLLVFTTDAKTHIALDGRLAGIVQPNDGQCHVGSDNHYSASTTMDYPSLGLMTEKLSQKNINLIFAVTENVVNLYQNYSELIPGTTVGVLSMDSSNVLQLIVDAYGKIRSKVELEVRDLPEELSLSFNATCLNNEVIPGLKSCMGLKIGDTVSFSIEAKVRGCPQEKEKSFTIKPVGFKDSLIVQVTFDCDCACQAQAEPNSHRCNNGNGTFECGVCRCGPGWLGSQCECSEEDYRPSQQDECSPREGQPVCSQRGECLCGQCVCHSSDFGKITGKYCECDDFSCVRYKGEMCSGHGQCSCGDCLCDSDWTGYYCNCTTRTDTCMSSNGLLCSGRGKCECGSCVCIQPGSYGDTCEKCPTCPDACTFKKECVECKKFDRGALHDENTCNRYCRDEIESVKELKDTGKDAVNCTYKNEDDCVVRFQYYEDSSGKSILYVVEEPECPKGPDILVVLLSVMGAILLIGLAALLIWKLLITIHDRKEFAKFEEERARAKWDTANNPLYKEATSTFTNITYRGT

In the case of `CC(C)[C@H]1C(=O)N[C@@H](CCCN=C(N)N)C(=O)NCC(=O)N[C@@H](CC(=O)O)C(=O)N[C@H](Cc2ccccc2)C(=O)N1C` [Cilengitide], the “efficacy in limiting tumor angiogenesis and progression” value (αVβ3) is listed as “has not shown efficacy”.

For “Natalizumab: antibody targeting lymphocyte α4β1 and α4β7 integrins”, the progressive multifocal leukoencephalopathy [1] is listed as “rare but serious complication”.

For “vedolizumab: antibody to a combinatorial epitope in α4β7”, the progressive multifocal leukoencephalopathy [1] is listed as “has not been observed”.
